In data set [1] the test system is MIN6 cells. The data set is described as follows: Apoptosis assay (cleaved caspase 3 immunostaining). Format: cell-based. As to conditions: 10 mM BME, 60 min incubation, n = 3 experiments. The method, then:
For quantification of apoptosis, MIN6 cells were incubated with 10 mM BME for the indicated times and fixed in 4% paraformaldehyde. Immunostaining was performed using an antibody against Cleaved Caspase 3 (CC3; 1:400; #9661, Cell Signaling Technology), before secondary goat antirabbit Alexa Fluor 633 (1:1000) and Hoechst 33342 staining. Cells were imaged using a Zeiss LSM 880 confocal microscope, with excitation delivered at λ = 405 nm and λ = 633 nm. Emitted signals were collected at λ = 410–550 nm and λ = 641–695 nm for Hoechst 33342 and Alexa Fluor 633, respectively. Total area was quantified using the threshold plugin for Fiji, and results were expressed as the ratio CC3/Hoechst, as described.[69]

Data set [2] deals with MIN6 cells. The experiment in a line: Necrosis assay (propidium iodide/calcein). Format: cell-based. Particulars: 10 mM BME, 60 min incubation. On the procedure:
For quantification of necrosis, MIN6 cells were labeled with 5 μM calcein-AM and 5 μM propidium iodide for 30 min. Cells were imaged in HEPES-bicarbonate buffer using the Crest X-Light spinning disk system, and excitation was performed at λ = 458–482 nm and λ = 543–558 nm for calcein and propidium iodide, respectively. Emitted signals were detected at λ = 500–550 nm and λ = 602–662 nm for calcein and propidium iodide, respectively. Total area was quantified using the threshold plugin for Fiji and expressed as the ratio propidium iodide/calcein, as described.[70]

The target of data set [3] is T1, human GHS-R1a (Homo sapiens, UniProt Q92847).
T1 construct: expressed in transfected cells; host or cells: HEK293T cells
The experiment in a line: Inositol phosphate (IP-1) accumulation assay, IP-One HTRF. Format: cell-based. Particulars: HEK293T-GHS-R1a cells; mean ± SEM, n = 2 assays in triplicate. (In general: In TR-FRET formats the signal depends on donor and acceptor labels being close together.)

For data set [4], the target named is SNAP_GLP-1R (UniProt P43220).
The target in data set [5] is T2, human GHS-R1a (human, UniProt Q92847 1-366). The experiment in a line: AlphaScreen or HTRF; Tag-lite HTRF competition (Cisbio) on HEK293T-GHS-R1a cells; Ki calculated from binding curves; the labelled tracer is not named; as in ref. 72; n = 2 assays in triplicate. Particulars: one partner purified.
For data set [6], the target named is T2, human GHS-R1a. The data set is described as follows: cell-based or functional assay.

Where no end group is shown, it is not given here. Side-chain parts run from the residue outwards. The star is where a group is joined. PEG4 (disulfide) = PEG4 chain joined to the cysteine by a disulfide bond, carrying benzylguanine; benzylguanine = O6-benzylguanine; Octanoyl = CCCCCCCC(=O)*

T2 sequence (Q92847 whole entry): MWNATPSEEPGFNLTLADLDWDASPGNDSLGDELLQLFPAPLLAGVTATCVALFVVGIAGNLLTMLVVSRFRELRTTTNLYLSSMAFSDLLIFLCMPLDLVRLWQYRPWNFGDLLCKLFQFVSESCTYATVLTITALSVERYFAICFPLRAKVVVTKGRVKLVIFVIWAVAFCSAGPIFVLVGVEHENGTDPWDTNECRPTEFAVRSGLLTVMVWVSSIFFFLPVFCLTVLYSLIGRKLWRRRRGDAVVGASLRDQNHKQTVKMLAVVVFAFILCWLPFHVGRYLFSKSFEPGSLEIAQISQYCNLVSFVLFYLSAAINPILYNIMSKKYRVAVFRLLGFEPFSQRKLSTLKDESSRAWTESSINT
T1 sequence (Q92847 whole entry): as above
Sequence of SNAP_GLP-1R (P43220 whole entry): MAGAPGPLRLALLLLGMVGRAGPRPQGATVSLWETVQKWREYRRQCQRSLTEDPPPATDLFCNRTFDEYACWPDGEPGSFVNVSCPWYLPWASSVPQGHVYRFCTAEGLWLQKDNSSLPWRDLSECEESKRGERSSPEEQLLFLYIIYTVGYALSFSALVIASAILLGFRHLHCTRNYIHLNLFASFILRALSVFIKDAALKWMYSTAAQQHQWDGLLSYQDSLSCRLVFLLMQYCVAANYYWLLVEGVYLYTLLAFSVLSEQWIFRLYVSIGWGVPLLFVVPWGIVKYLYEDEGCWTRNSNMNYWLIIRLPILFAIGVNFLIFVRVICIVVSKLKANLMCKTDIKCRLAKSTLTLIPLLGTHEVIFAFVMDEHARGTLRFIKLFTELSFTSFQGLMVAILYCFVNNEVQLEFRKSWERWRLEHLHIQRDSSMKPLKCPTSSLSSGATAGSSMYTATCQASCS

With `OCCS` [BME, beta-mercaptoethanol], in data set [1], the “apoptosis (cleaved caspase 3)” value is “did not display significant signs of necrosis (Figure S4a) or apoptosis”. Besides, the necrosis entry in data set [2] is given as “did not display significant signs of necrosis”.
On to `CCCCCCCC(=O)OC[C@H](NC(=O)[C@H](CO)NC(=O)CN)C(=O)N[C@@H](Cc1ccccc1)C(=O)N[C@@H](CC(C)C)C(=O)N[C@@H](CO)C(=O)N1CCC[C@H]1C(=O)N[C@@H](CCC(=O)O)C(=O)N[C@@H](Cc1c[nH]cn1)C(=O)N[C@@H](CCC(N)=O)C(=O)N[C@@H](CCCNC(=N)N)C(=O)N[C@H](C(=O)N[C@@H](CCC(N)=O)C(=O)N[C@@H](CCC(N)=O)C(=O)N[C@@H](CCCNC(=N)N)C(=O)N[C@@H](CCCCN)C(=O)N[C@@H](CCC(=O)O)C(=O)N[C@@H](CO)C(=O)N[C@@H](CCCCN)C(=O)N[C@@H](CCCCN)C(=O)N1CCC[C@H]1C(=O)N1CCC[C@H]1C(=O)N[C@@H](C)C(=O)N[C@@H](CCCCN)C(=O)N[C@@H](CC(C)C)C(=O)N[C@@H](CCC(N)=O)C(=O)N1CCC[C@H]1C(=O)N[C@@H](CCCNC(=N)N)C(=O)NCC(=O)NCC(=O)N[C@@H](CS)C(=O)NCC(=O)O)C(C)C` [ghrelinGGCG], for which, in data set [3], the EC50 – broadly, the midpoint of the concentration-response curve – was 11.1 ± 0.4 nM.
Molecule S39C-Ex4 (peptide) had an EC50 of cAMP accumulation (LANCE TR-FRET, 30 min) in YFP-AD293-SNAP GLP-1R cells in data set [4] of 0.0988 nM.
As for GSS(Octanoyl)FLSPEHQRVQQRKESKKPPAKLQPRGGC([PEG4 (disulfide)-benzylguanine])G [GhrelON], the Ki (as a rule, the equilibrium dissociation constant of an inhibitor or competing ligand from its target) in data set [5] was 6.1 nM. Besides, the “EC50 of IP-1 accumulation (IP-One HTRF kit) in HEK293T-GHS-R1a cells” value in data set [6] was 5.5 nM.
As for GSS(Octanoyl)FLSPEHQRVQQRKESKKPPAKLQPRGGCG [ghrelinGGCG], in data set [5], the Ki is 19.6 nM. The “EC50 of IP-1 accumulation (IP-One HTRF kit) in HEK293T-GHS-R1a cells” value in data set [6] turned out to be 11.2 nM.

The record behind these values is publication PMC5832994 (ACS Central Science, 2018).
